Data: US12042530B2, “Target peptides for immunotherapy and diagnostics” (University of Virginia Patent Foundation, priority 2012, dated 2024)
Non-standard residues stand in square brackets, D forms with d. Residues, ends and D or L forms follow the SMILES beside them. No end group written: not given here. pT = C[C@@H](OP(=O)(O)O)[C@H](N)C(=O)O; pS = N[C@@H](COP(=O)(O)O)C(=O)O

Experiments:
[1] = biological target: T1, HLA-A*0201 (HLA-A2) peptide complexes (Homo sapiens, UniProt P04439, D140Y/D185E/D98H/E176V/E277Q/G131W/G231S/I119V/I121R/I166T/I218V/L300P/L318F/N151K/N90K/P208A/P217A/Q86G/Q94H/R138H/R169H/T345S); test: HLA-A*0201 phosphopeptides associated with leukemia samples (isolation of HLA-associated peptides); settings: for Copies/cell class, JY: EBV transformed B lymphoblastoid cell line JY; for Copies/cell class, AML1: acute myeloid leukemia sample AML1; for Copies/cell class, CLL1: chronic lymphocytic leukemia sample CLL1; for Copies/cell class, B Cell: healthy B cells; for Copies/cell class, T Cell: healthy T cells; for Copies/cell class, MCL: mantle cell lymphoma sample
T1 construct: endogenous in cells; host or cells: JY B-lymphoblastoid line; primary CLL, MCL, AML, ALL samples; healthy splenic T and B cells
Description: To identify naturally processed tumor-associated phosphopeptides, HLA-A*0201 (HLA-A2) and HLA-B*0702 (HLA-B7) peptide complexes from four (4) chronic lymphocytic leukemia (CLL) tumor samples, a mantle cell lymphoma sample (MCL), one acute lymphoblastic leukemia (ALL), and an acute myeloid leukemia (AML) sample, in addition to healthy splenic T and B-cells and the cultured lymphoblastoid cell line JY were isolated. These efforts yielded 10 HLA-A2-restricted and 86 HLA-B7-restricted phosphopeptide antigens (see Tables 6 and 7).
All cell lines were grown at 37° C. with 5% CO2 in growth medium consisting of RPMI 1640 supplemented with 10% FCS and two mM L-glutamine. Blood or leukapheresis samples were taken from patients with high-burden leukemia in heparin. Tumor cells were recovered by layering the blood over density gradient (Ficoll) and collecting the tumor layer following centrifugation. The tumor was washed in tris-buffered saline (TBS). The purity of the tumor was assessed using flow cytometry and was >98% pure in all cases. For healthy T and B-cell populations, a normal spleen sample processed and tonsil sample was collected and lymphocytes released through mechanical disruption. Mononuclear cells were isolated using a density gradient and 10^9 T cells isolated using anti-CD19 or anti-CD3 microbeads (Miltenyi Biotec Inc., Auburn, California, United States of America) with purity >98% were obtained. Bone marrow sample was obtained from an elective orthopedic procedure and red cell-depleted using hypotonic lysis. This sample was not processed further.
Class I MHC molecules were immunoaffinity purified from the JY cell line or from primary tumor samples, and their associated peptides were extracted as previously described in Zarling et al., 2006. Approximately 1.2-14×10^9 cells were lysed in a solution containing 20 mM Tris-HCl (pH 8.0), 150 mM NaCl, 1% CHAPS, one mM PMSF, five μg/mL aprotinin, 10 μg/mL leupeptin, 10 μg/mL pepstatin A, 1 μg/ml calyculin A, and phosphatase inhibitor (cocktails I and II; Sigma-Aldrich). The mixture was subjected to centrifugation and the resulting supernatant was passed over protein A sepharose pre-loaded with the HLA-A2-specific antibody BB7.2 or HLA-B7-specific antibody MEL Peptides were eluted from the purified class I MHC molecules with 10% acetic acid.

[2] = biological target: T2, HLA A*0201 (Homo sapiens, UniProt P04439, D140Y/D185E/D98H/E176V/E277Q/G131W/G231S/I119V/I121R/I166T/I218V/L300P/L318F/N151K/N90K/P208A/P217A/Q86G/Q94H/R138H/R169H/T345S); test: HLA-A*0201 peptide-binding competition assay; settings: for IC50: FIG. 2F, three independent experiments, triplicate wells, read-out: IC50, competition with a standard peptide for HLA-A2 binding (converted)
Protocol: Affinity purified HLA-A*0201 was incubated with iodinated peptide […] (SEQ ID NO: 2379), graded doses of test peptides, and β2M as previously described (Zarling et al., 2000). Peptide-MHC complexes were captured in W6/32-coated ELISA plates after 48 hours and the dose at which test peptides inhibited binding of the indicator peptide by 50% (IC50) was calculated.

[3] = tested on: PBMCs; test: Memory T cell response, IFNγ ELISpot, healthy A2 positive donors; type: cell-based, human; settings: for Day 7 ELISpot, donor alpha: healthy A2 positive donor alpha; for Day 7 ELISpot, donor beta: healthy A2 positive donor beta; for Memory T cell response, in words: healthy donors / patient; for Day 7 ELISpot, donor one: healthy A2 positive donor one
[4] = biological target: T2, HLA A*0201; test: Binding to HLA A*0201 (statement)
[5] = biological target: HLA A*0301 (Homo sapiens, UniProt P04439); test: Binding to HLA A*0301 (statement)

“460 (SMTRSPPRV; SITE (1)..(9): One or more of the listed amino acids can be phosphorylated as set forth in the Tables; listed as Homo sapiens) [compound 460]” was tested, and the “Copies/cell class, CLL2” value [1] was 0, the “Copies/cell class, CLL3” value [1] was 1 (1 indicates <1 copy/cell) and the “Copies/cell class, CLL4” value [1] was 0. The “Copies/cell class, JY” value [1] was 0, the “Copies/cell class, AML1” value [1] was 0 and the “Copies/cell class, CLL1” value [1] was 0. For the same molecule, the “Copies/cell class, B Cell” value [1] was 0, the “Copies/cell class, T Cell” value [1] was 0 and the “Copies/cell class, MCL” value [1] was 0.
In the case of “464 (VMIGSPKKV; SITE (1)..(9): One or more of the listed amino acids can be phosphorylated as set forth in the Tables; listed as Homo sapiens) [compound 464]”, the “Copies/cell class, CLL2” value [1] is reported as 0, the “Copies/cell class, CLL3” value [1] is reported as 0 and the “Copies/cell class, CLL4” value [1] is reported as 0. The “Copies/cell class, JY” value [1] was 0, the “Copies/cell class, AML1” value [1] was 0 and the “Copies/cell class, CLL1” value [1] was 0. For the same molecule, the “Copies/cell class, B Cell” value [1] was 0, the “Copies/cell class, T Cell” value [1] was 0 and the “Copies/cell class, MCL” value [1] was 1 (1 indicates <1 copy/cell).
CC[C@H](C)[C@H](NC(=O)CNC(=O)[C@H](COP(=O)(O)O)NC(=O)[C@H](CC(=O)O)NC(=O)[C@H](CC(C)C)NC(=O)[C@@H](N)Cc1ccc(O)cc1)C(=O)N[C@@H](Cc1c[nH]cn1)C(=O)N[C@@H](CO)C(=O)NCC(=O)N[C@@H](C)C(=O)O [SEQ ID NO: 427, YLD(pS)GIHSGA] (H-YLD[pS]GIHSGA-OH) showed an IC50 [2] of 0.298 µM.
CC[C@H](C)[C@H](NC(=O)CNC(=O)[C@H](COP(=O)(O)O)NC(=O)[C@H](CC(=O)O)NC(=O)[C@H](CC(C)C)NC(=O)[C@@H](N)Cc1ccc(O)cc1)C(=O)N[C@@H](Cc1c[nH]cn1)C(=O)N[C@@H](CO)C(=O)NCC(=O)N[C@H](C(=O)O)C(C)C [SEQ ID NO: 2080, YLDsGIHSGV] (H-YLD[pS]GIHSGV-OH) gave an IC50 [2] of 0.0364 µM.
CC[C@H](C)[C@H](NC(=O)CNC(=O)[C@H](COP(=O)(O)O)NC(=O)[C@H](CC(=O)O)NC(=O)[C@H](CC(C)C)NC(=O)[C@@H](N)Cc1ccc(O)cc1)C(=O)N[C@@H](Cc1c[nH]cn1)C(=O)N[C@@H](COP(=O)(O)O)C(=O)NCC(=O)N[C@@H](C)C(=O)O [pS33/S37-βcat30] (H-YLD[pS]GIH[pS]GA-OH) gave an IC50 [2] of 0.575 µM.
For “APRRYsSSL (APRRY[pS]SSL; listed as Homo sapiens) [SEQ ID NO: 267]”, the “Day 7 ELISpot, donor alpha” value [3] was “++ (25-99 spots)”, the “Day 7 ELISpot, donor beta” value [3] was “+ (3-24 spots)” and the “Memory T cell response, in words” value [3] was “Two healthy donors (HD) responded”. The “Binding to HLA A*0201” value [4] was “does not bind to A*0201”.
With “IMDRtPEKL (IMDR[pT]PEKL; listed as Homo sapiens) [SEQ ID NO: 398]” the “Day 7 ELISpot, donor alpha” value [3] was “+++ (>100 spots)” and the “Day 7 ELISpot, donor one” value [3] was “+ (3-24 spots)”.
For “RTFpSPTYGL (RTF[pS]PTYGL; listed as Homo sapiens) [SEQ ID NO: 457]”, the “Day 7 ELISpot, donor one” value [3] was “+ (3-24 spots)” and the “Day 7 ELISpot, donor three” value ([3]; healthy A2 positive donor three) was “+ (3-24 spots)”.
With “RVAsPTSGVK (RVA[pS]PTSGVK; listed as Homo sapiens) [SEQ ID NO: 65]” the “Binding to HLA A*0201” value [4] was “Neither of the A*0301 peptides bind to A*0201” and the “Binding to / presentation by HLA A*0301” value [5] was “bind to HLA A*0301”.
“RVAsPTSGVKR (RVA[pS]PTSGVKR; listed as Homo sapiens) [SEQ ID NO: 66]” was tested, and the “Binding to HLA A*0201” value [4] was “Neither of the A*0301 peptides bind to A*0201” and the “Binding to / presentation by HLA A*0301” value [5] was “bind to HLA A*0301”.
For “TPRVTGGGAM (Artificially synthesized cytomegalovirus peptide) [TPR (CMV), cytomegalovirus (CMV) peptide, reference compound]”, the “Day 7 ELISpot, donor alpha” value [3] was “+++ (>100 spots)” and the “Day 7 ELISpot, donor one” value [3] was “+ (3-24 spots)”.
For “VMIGpSPKKV (VMIG[pS]PKKV; listed as Homo sapiens) [SEQ ID NO: 426]”, the “Day 7 ELISpot, donor alpha” value [3] was “++ (25-99 spots)”, the “Day 7 ELISpot, donor beta” value [3] was “+ (3-24 spots)” and the “Day 7 ELISpot, donor one” value [3] was “++ (25-99 spots)”. The “Day 7 ELISpot, donor two” value ([3]; healthy A2 positive donor two) was “++ (25-99 spots)”.
For VMIGsPKKL, the “HLA-A*0201 (MHC) binding affinity, in words” value [2] was “weak MHC binding affinity” and the “Memory T cell response, in words” value [3] was “strong phosphopeptide-specific memory T cell response”.
